Test results taken from paper PMC11199634.

Key:
[1] = target: SDS22-KR7A (purified) (human) (UniProt Q15435); assay: ITC; 5 μM SDS22 in the cell titrated with 50 μM His-I3 (20 injections), 22 °C, MicroCal iTC200; binding curves not saturated
LgBiT-PP1α = LgBiT-PP1α (UniProt P62136); assay: lysate-based split-luciferase complementation; details: mixed HEK293T lysates; signals normalized for the same expression level; n = 3; parent: est. 100; read off a plot
EGFP-I3-DE4A (human) = EGFP-I3-DE4A (human) (UniProt O60927); assay: co-IP; EGFP-trap (anti-EGFP nanobodies on agarose, 2 h, 4 °C) of transiently expressed EGFP fusions from HEK293T lysates (20 mM Tris pH 7.9, 0.3 M NaCl, 0.5% Triton X-100); endogenous partners by immunoblot
Chain of EGFP-I3-DE4A (human) (O60927 whole entry, the tested form may be a part): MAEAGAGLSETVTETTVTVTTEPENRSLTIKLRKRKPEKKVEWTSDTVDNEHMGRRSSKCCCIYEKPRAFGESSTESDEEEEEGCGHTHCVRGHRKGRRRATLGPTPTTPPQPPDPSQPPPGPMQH

Chain of LgBiT-PP1α (P62136 whole entry, the tested form may be a part): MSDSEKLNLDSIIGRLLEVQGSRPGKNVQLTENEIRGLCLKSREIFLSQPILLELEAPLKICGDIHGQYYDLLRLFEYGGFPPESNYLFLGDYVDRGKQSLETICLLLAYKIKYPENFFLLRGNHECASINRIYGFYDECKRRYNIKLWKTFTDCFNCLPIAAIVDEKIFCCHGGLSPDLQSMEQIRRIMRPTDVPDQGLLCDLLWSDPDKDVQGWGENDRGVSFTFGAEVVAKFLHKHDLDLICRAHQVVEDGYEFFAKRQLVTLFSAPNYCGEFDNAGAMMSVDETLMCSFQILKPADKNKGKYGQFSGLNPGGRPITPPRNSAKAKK
Chain of SDS22-KR7A (purified) (human) (Q15435 whole entry): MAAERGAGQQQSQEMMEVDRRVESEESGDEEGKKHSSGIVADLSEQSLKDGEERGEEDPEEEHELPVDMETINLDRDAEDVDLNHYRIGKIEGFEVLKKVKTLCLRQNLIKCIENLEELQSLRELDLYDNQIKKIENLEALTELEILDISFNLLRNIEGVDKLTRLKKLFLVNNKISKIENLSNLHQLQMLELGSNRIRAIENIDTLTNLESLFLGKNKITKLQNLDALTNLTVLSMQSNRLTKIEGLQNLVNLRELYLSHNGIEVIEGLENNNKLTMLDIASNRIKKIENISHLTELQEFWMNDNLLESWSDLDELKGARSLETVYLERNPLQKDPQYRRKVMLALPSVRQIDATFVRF
Chain of His-I3 (O60927 whole entry): as the sequence (O60927 whole entry, the tested form may be a part) above
Chain of I3^WT-SmBiT (O60927 whole entry, change not shown): as the sequence (O60927 whole entry, the tested form may be a part) above
Chain of PP1 (endogenous, HEK293T) (P62136 whole entry): as the sequence (P62136 whole entry, the tested form may be a part) above
Chain of RM-SmBiT (Q69YH5 whole entry, change not shown): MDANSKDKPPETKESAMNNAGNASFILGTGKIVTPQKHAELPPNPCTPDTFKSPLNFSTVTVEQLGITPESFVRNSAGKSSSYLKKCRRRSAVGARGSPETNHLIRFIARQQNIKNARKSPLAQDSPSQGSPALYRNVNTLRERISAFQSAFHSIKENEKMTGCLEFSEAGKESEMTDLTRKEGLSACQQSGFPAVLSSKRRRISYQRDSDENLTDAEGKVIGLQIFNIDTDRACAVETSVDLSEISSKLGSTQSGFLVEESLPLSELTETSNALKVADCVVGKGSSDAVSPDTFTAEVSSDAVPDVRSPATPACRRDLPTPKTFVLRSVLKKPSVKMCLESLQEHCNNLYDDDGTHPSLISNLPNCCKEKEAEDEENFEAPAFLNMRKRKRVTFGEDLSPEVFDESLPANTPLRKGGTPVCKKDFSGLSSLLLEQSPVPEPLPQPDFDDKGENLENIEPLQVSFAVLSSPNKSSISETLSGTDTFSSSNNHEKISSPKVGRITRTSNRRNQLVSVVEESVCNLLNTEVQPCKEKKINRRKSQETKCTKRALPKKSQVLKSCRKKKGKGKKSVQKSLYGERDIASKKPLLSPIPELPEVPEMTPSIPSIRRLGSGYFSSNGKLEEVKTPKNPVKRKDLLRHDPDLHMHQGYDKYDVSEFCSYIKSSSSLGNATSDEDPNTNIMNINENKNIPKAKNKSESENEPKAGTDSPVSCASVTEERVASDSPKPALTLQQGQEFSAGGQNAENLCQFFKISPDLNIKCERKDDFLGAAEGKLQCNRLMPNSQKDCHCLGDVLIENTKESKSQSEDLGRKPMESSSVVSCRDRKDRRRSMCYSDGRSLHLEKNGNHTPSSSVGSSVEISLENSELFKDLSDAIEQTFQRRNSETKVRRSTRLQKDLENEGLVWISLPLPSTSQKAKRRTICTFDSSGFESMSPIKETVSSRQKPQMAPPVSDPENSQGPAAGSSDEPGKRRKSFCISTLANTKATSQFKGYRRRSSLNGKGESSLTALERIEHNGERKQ
Chain of I2-SmBiT (P41236 whole entry, change not shown): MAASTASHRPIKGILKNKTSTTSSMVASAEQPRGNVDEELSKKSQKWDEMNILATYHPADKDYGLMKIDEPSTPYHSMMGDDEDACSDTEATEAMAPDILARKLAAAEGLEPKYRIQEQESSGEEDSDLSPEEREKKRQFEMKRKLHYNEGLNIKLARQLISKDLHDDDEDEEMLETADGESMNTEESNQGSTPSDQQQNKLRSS

Row | percent of parent (% of RIPPOs^WT-SmBiT) (LgBiT-PP1α) | Substance | other results
1 | – | His-I3 (from UniProt O60927 1-126) (natural protein) | Kd [1]: 128 µM
2 | 32 | I2-SmBiT (from UniProt P41236) RATA | –
3 | 6 | I3^WT-SmBiT (from UniProt O60927) RATA | –
4 | 10 | RM-SmBiT (from UniProt Q69YH5) RATA | –
5 | – | PP1 (endogenous, HEK293T) (from UniProt P62136 1-330) (enzyme) | percent decrease of binding against EGFP-I3-WT (EGFP-I3-DE4A (human)): 35%
